Measurements: paper PMC10075959

Target: FL-N nucleocapsid protein (SARS-CoV-2, UniProt P0DTC9 1-419)
Experiment: sedimentation velocity AUC
Conditions: protein: commercial; chain copies: 2; single strand

TTTTTTTTTT (ssDNA) [T10]: binds.
